Results as given in patent US20190241662A1 (ADAGENE, published 2019).
Changes are numbered by the printed parent chain.

T1: full-length human CTLA4 expressed on cells (human, UniProt P16410 36-223)
T1 sequence (looked up): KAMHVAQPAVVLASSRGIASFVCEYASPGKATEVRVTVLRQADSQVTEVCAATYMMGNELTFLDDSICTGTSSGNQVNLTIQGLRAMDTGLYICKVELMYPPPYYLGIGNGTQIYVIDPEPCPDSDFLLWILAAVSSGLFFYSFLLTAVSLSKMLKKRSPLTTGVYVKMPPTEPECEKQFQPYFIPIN

T2: human LAG3 on HEK293F cells (human, UniProt P18627 23-525)
T2 construct: whole, on cells
T2 sequence (looked up): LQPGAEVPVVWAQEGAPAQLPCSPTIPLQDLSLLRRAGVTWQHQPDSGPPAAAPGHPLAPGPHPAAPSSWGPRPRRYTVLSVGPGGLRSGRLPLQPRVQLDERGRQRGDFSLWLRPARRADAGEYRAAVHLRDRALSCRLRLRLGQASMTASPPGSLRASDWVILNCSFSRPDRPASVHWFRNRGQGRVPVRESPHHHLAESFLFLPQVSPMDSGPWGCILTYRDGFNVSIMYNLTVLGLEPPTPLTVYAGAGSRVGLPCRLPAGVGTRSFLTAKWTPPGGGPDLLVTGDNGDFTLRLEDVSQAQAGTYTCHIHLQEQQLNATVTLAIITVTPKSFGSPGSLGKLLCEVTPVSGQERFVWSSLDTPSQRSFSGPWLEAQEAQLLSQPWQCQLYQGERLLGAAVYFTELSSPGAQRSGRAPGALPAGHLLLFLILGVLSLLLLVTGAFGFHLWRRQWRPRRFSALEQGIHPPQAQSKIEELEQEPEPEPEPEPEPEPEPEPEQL

T3: human B7H3 on HEK293F cells (human, UniProt Q5ZPR3 29-534)
T3 construct: whole, on cells
T3 sequence (looked up): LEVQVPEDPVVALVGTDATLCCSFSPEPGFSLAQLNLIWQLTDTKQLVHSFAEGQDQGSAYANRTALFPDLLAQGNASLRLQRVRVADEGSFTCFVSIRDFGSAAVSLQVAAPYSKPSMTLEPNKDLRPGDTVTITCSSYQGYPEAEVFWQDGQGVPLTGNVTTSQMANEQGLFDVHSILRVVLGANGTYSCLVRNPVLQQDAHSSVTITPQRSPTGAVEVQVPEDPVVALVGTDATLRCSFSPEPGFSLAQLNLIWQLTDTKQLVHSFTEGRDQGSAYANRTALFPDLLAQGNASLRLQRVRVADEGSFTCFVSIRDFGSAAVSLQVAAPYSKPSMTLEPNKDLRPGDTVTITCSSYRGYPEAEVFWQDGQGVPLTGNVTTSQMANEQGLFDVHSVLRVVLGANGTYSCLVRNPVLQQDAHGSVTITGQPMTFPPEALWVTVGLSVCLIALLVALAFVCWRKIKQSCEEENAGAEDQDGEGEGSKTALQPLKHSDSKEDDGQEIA

T4: human Tim3 on HEK293F cells (human, UniProt Q8TDQ0 22-301)
T4 construct: whole, on cells
T4 sequence (looked up): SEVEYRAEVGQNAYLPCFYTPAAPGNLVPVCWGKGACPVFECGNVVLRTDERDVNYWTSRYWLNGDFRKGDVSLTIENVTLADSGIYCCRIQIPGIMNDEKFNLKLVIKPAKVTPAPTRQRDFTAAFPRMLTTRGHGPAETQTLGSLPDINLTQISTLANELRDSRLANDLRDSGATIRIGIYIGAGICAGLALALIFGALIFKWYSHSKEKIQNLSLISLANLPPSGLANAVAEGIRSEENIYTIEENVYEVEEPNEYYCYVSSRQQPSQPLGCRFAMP

B1: TY21691 (antibody, V domains shown)
VH: EVQLVESGGGLVQPGGSLRLSCAASGFTFSDYAIHWVRQAPGKGLEWIGIISPSGGSTKYAQKFQGRVTISRDNSKNTLYLQLNSLRAEDTAVYYCARLGYGYFDVWGQGTLVTVSS
VL: DIQLTQSPSSLSASVGDRVTITCRASQSVDFYGISFLHWYQQKPGKAPKLLIYDASSLESGVPSRFSGSGSGTDFTLTISSLQPEDFATYYCVQALQLPLTFGQGTKVEIK
notes: human IgG1 (hIgG1) from Fab hit B15736
B2: TY21591 (antibody, V domains shown)
VH: EVQLVESGGGLVQPGGSLRLSCAASGFSLSTGGVAVSWIRQAPGKGLEWIGEIYHSGSTYYSPSLKSRVTISRDNSKNTLYLQLNSLRAEDTAVYYCARRIATATYFDYWGQGTLVTVSS
VL: DIQLTQSPSSLSASVGDRVTITCRASQTVFSRYLAWYQQKPGKAPKLLIYDASNRATGIPSRFSGSGSGTDFTLTISSLQPEDFATYYCQQSYYWPPWTFGQGTKVEIK
notes: human IgG1 (hIgG1) from Fab hit B15756
B3: TY21687 (antibody, V domains shown)
VH: EVQLVESGGGLVQPGGSLRLSCAASGFTFSGYAIHWVRQAPGKGLEWIGIISPSGGGTKYAQKFQGRVTISRDNSKNTLYLQLNSLRAEDTAVYYCARHPFAYWGQGTLVTVSS
VL: DIQLTQSPSSLSASVGDRVTITCRASQSVDFYGISFLDWYQQKPGKAPKLLIYDASNRATGIPSRFSGSGSGTDFTLTISSLQPEDFATYYCQQYVSSPPEYTFGQGTKVEIK
notes: human IgG1 (hIgG1) from Fab hit B15700
B4: TY21585 (antibody, V domains shown)
VH: EVQLVESGGGLVQPGGSLRLSCAASGFTFSDYAIHWVRQAPGKGLEWIGIISPSSGSTNYAQKFQGRVTISRDNSKNTLYLQLNSLRAEDTAVYYCARDIHSGSSGYYYGFDVWGQGTLVTVSS
VL: B3 VL with Q27E, Y32F, D38A, Q94H, V96T, E101V
notes: human IgG1 (hIgG1) from Fab hit B15709

What was measured:
[1] = target: T1, full-length human CTLA4 expressed on …; assay: cell-based or functional assay
[2] = target: T2, human LAG3 on HEK293F cells; assay: flow cytometry, transfected HEK293F cells
Procedure: (§1) Antibody selectivity was next examined. Human CTLA4, PD1, LAG3, Tim3, B7H3, CD95, TNFR1, OX40, CD40, PD-L1, BLTA, VISTA, PDL2, ICOS and B7H4 were transiently overexpressed on the surface of HEK293F cells. Transfected cells were washed in pre-chilled 1×PBSA buffer (1.76 mM KH2PO4, 10.14 mM Na2HPO4.12H2O, 2.68 mM KCl, 136.89 mM NaCl and 1% BSA), then incubated with 100 nM test antibodies for 1 hour on ice. Cells were washed once with staining buffer, and Alexa Fluor® 647 conjugated mouse anti-human FC antibodies were added and incubated for 30 minutes on ice, protected from light. Samples were washed once with staining buffer prior to analysis by flow cytometry.

[3] = target: T1, full-length human CTLA4 expressed on …; assay: cell-based or functional assay; remark: listed apart in the source
[4] = target: T1, full-length human CTLA4 expressed on …; assay: flow cytometry blocking: HEK293F cells with human CTLA4, 100 nM antibody, then 100 nM CD80-Fc-Bio (blocked ligand); PBSA panel: Mean 157692, 26.3%
[5] = target: T1, full-length human CTLA4 expressed on …; assay: flow cytometry blocking: HEK293F cells with human CTLA4, 100 nM antibody, then 100 nM CD86-Fc-Bio (blocked ligand); PBSA panel: Mean 10678, 12.2%
Procedure: Antibodies were also tested for their ability to block binding of CTLA4 to its cognate ligands CD80 and CD86 by flow cytometry. The plasmid encoding full-length human CTLA4 was transiently expressed in HEK293F cells. Cells were washed with staining buffer (PBSA buffer including 1.76 mM KH₂PO₄, 10.14 mM Na₂HPO₄.12H₂O, 2.68 mM KCl, 136.89 mM NaCl and 1% BSA), and resuspended in staining buffer containing 100 nM test antibodies. […] Cells were washed once, and analyzed by CytoFlex flow cytometry.

[6] = target: T5, human CD40 on HEK293F cells (human, UniProt P25942 21-277); assay: flow cytometry, transfected HEK293F cells [Cont.]
T5 construct: whole, on cells
Procedure: as §1

[7] = target: T1, full-length human CTLA4 expressed on …; assay: flow cytometry, transfected HEK293F cells, 100 nM antibody [Cont.]
Procedure: as §1

[8] = target: T3, human B7H3 on HEK293F cells; assay: flow cytometry, transfected HEK293F cells [Cont.]
Procedure: as §1

[9] = target: T4, human Tim3 on HEK293F cells; assay: flow cytometry, transfected HEK293F cells [Cont.]
Procedure: as §1

T5 sequence (P25942 21-277): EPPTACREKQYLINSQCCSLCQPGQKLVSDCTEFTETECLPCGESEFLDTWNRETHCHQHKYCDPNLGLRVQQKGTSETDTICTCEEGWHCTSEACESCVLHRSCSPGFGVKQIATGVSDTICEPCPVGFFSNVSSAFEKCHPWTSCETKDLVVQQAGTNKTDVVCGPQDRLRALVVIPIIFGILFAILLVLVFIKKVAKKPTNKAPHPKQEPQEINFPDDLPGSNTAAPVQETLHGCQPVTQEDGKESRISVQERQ

| Binder | EC50 for TCR/CD28 pathway activation (luciferase reporter, CTLA4 blockade bioassay) [1] | binding result [2] | EC50 for ADCC reporter signaling (Jurkat/NFAT-Luc/CD16 with HEK293F/hCTLA4 cells) [3] | % of cells in upper right quadrant (CD80-positive) in the presence of the antibody [4] | Mean of the CD80 binding signal in the presence of the antibody [4] | % of cells in upper right quadrant (CD86-positive) in the presence of the antibody [5] | Mean of the CD86 binding signal in the presence of the antibody [5] | binding result [6] | % of cells in upper right quadrant (Q2) [7] | binding result [8] | binding result [9] | Mean [7] |
| --- | --- | --- | --- | --- | --- | --- | --- | --- | --- | --- | --- | --- |
| B1 | 2.64 µg/mL | no binding (tested: 100 nM) | > 10 µg/mL | – | – | – | – | – | – | – | – | – |
| B2 | – | – | – | 24.9% | 68500 | 0.61% | 4960 | no binding (tested: 100 nM) | – | – | – | – |
| B3 | 5.01 µg/mL | – | 9.5 µg/mL | – | – | – | – | – | 75.7% | no binding (tested: 100 nM) | no binding (tested: 100 nM) | – |
| B4 | – | no binding (tested: 100 nM) | – | 22.5% | 83700 | 3.43% | 5140 | no binding (tested: 100 nM) | 36.3 | no binding (tested: 100 nM) | no binding (tested: 100 nM) | 6190 |
